Measurements from the supplement of paper PMC7877785.
± gives the uncertainty stated by the source.

Assay: self-splicing fitness, log relative to wild type (ln ratio); higher = more splicing; Tetrahymena group I intron in knt gene, E. coli kanamycin selection, DiMSum; sequences stand for … in CUCUCU…GGAGGGAAAAGUUAUCAGGCAUGCACCUGGUAGCUAGUCUUUAAACCAAUAGAUUGCAUCGGUUUAAAAGGCAAGACCGUCAAAUUGCGGGAAAGGGGUCAACAGCCGUUCAGUACCAAGUCUCAGGGGAAACUUUGAGAUGGCCUUGCAAAGGGUAUGGUAAUAAGCUGACGGACAUGGUCCUAACCACGCAGCCAAGUCCUAAGUCAACAGAUCUUCUGUUGAUAUGGAUGCAGUUCACAGACUAAAUGUCGGUCGGGGAAGAUGUAUUCUUCUCAUAAGAUAUAGUCGGACCUCUCCUUAAUGGGAGCUAGCGGAUGAAGUGAUGCAACACUGGAGCCGCUGGGAACUAAUUUGUAUGCGAAAGUAUAUUGAUUAGUUUUGGAGUACUCGUGGUCG
Outline: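 Six replicate transformations of E. coli BL21(DE3) with a pET-22b(+) library were grown overnight at 37°C or 30°C. The library randomised all eight P1ex-region intron nucleotides, the intron lying in the knt kanamycin-resistance gene, and plates were LB agar with or without 25 μg/mL kanamycin plus 100 μg/mL carbenicillin, 50 μM IPTG and 0.2% rhamnose. Pooled colonies were amplicon-sequenced on an Illumina HiSeq 2500, and fitness is the DiMSum error-weighted combination of wild-type-normalised replicate fold changes, kanamycin versus none.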

Sequence	self-splicing fitness (ln) (30 °C)	self-splicing fitness (ln) (37 °C)
UUCAAGCAAUAUUACGCUCU	-1.37 ± 0.17	0.387 ± 0.21
GGCGAGCAAUAUUACGGUGU	-2.02 ± 0.25	-1.55 ± 0.17
AAUGAGCAAUAUUACGUACU	-0.657 ± 0.12	-0.978 ± 0.16
GGGGAGCAAUAUUACGCAGU		-1.35 ± 0.36
UGAGAGCAAUAUUACGCGAA	-4.25 ± 0.4	-1.53 ± 0.28
GUCUAGCAAUAUUACGGCGC	-0.167 ± 0.1	0.985 ± 0.12
UUGUAGCAAUAUUACGGUUA	-1.41 ± 0.14	-0.784 ± 0.13
UGUGAGCAAUAUUACGCGAU	-3.88 ± 0.33	-3.57 ± 0.37
GCCCAGCAAUAUUACGCGGG	-3.71 ± 0.2	-2.31 ± 0.22
AGACAGCAAUAUUACGAUUU	0.0877 ± 0.068	0.119 ± 0.086
UGCGAGCAAUAUUACGAGGC	-2.74 ± 0.23	-2 ± 0.23
CCCCAGCAAUAUUACGUGAG	-1.84 ± 0.07	-1.33 ± 0.084
UAUGAGCAAUAUUACGGCGU	-3.11 ± 0.21	-2.38 ± 0.29
UGCUAGCAAUAUUACGUUUC	-4.01 ± 0.42	-2.06 ± 0.34
UUAAAGCAAUAUUACGUACC	-1.73 ± 0.12	-0.333 ± 0.16
GGACAGCAAUAUUACGGAUA	-1.13 ± 0.11	-1.51 ± 0.093
GCCUAGCAAUAUUACGCGGA	-0.245 ± 0.08	0.226 ± 0.093
CGUUAGCAAUAUUACGUUCU	-1.39 ± 0.15	-1.25 ± 0.14
UUUCAGCAAUAUUACGUCAU	-3.32 ± 0.24	-2.47 ± 0.35
CUUGAGCAAUAUUACGUGAG	-2.89 ± 0.12	-1.28 ± 0.12
GCGCAGCAAUAUUACGCAAA	-1.8 ± 0.087	-0.777 ± 0.078
CCUCAGCAAUAUUACGACUG	-3.09 ± 0.23	-2.76 ± 0.21
GCUCAGCAAUAUUACGGAAA	-1.62 ± 0.15	-0.337 ± 0.12
CGGGAGCAAUAUUACGGGAC	-3.57 ± 0.3	-3.25 ± 0.4

Sequence	self-splicing fitness (ln) (30 °C)	self-splicing fitness (ln) (37 °C)
GCUUAGCAAUAUUACGUAAC	-0.517 ± 0.11	-0.62 ± 0.24
AUUGAGCAAUAUUACGUACG	-3.25 ± 0.29	-1.53 ± 0.26
CUCGAGCAAUAUUACGAUGA	-2.19 ± 0.19	-1.36 ± 0.2
UCGGAGCAAUAUUACGAUGG	-3.2 ± 0.22	-2.1 ± 0.25
AUGGAGCAAUAUUACGCCGA	-2.82 ± 0.32	-2.87 ± 0.48
AGUGAGCAAUAUUACGCGUC	-1.51 ± 0.3	-2.62 ± 0.45
GUCAAGCAAUAUUACGGCGC	-0.751 ± 0.11	-0.437 ± 0.14
UACAAGCAAUAUUACGUUAC	-4.21 ± 0.23	-2.84 ± 0.22
AAUUAGCAAUAUUACGUAUC	-2.2 ± 0.15	-0.0316 ± 0.13
AGAGAGCAAUAUUACGAUCA	-1.93 ± 0.16	-1.44 ± 0.17
UGUGAGCAAUAUUACGCGGA	-2.4 ± 0.2	-1.31 ± 0.21
ACGGAGCAAUAUUACGAGUU	-3.23 ± 0.22	-2.54 ± 0.33
UAAGAGCAAUAUUACGAAUC	-2.87 ± 0.29	-1.79 ± 0.35
CCCUAGCAAUAUUACGUACG	-2.86 ± 0.18	-2.81 ± 0.27
GAUGAGCAAUAUUACGACCA	-3.85 ± 0.35	-3.8 ± 0.39
CAUGAGCAAUAUUACGUUGC	-2.57 ± 0.091	-3.34 ± 0.2
AAUUAGCAAUAUUACGAAAA	-2.54 ± 0.24	-0.586 ± 0.19
CUGAAGCAAUAUUACGGAUA	-4.19 ± 0.22	-1.19 ± 0.18
CACGAGCAAUAUUACGCGGC		-1.38 ± 0.22
CACUAGCAAUAUUACGCGCC	-2.9 ± 0.23	-1.22 ± 0.22
GACUAGCAAUAUUACGCCGC	-3.31 ± 0.21	-1.65 ± 0.2
CUAAAGCAAUAUUACGAGAC	-3.33 ± 0.18	-0.499 ± 0.16
CCCCAGCAAUAUUACGCUCA	-3.21 ± 0.24	-0.421 ± 0.17
GAACAGCAAUAUUACGCGUU	-3.27 ± 0.12	-2.69 ± 0.14
